The values that follow come from patent US20070166787A1 (YEDA RESEARCH AND DEVELOPMENT, published 2007).

The labels stand for the following.
B1: death domain (DD) of human p55 TNF-R, residues 326-426, Gal4 hybrid construct (receptor, not shown: large carriers)
chain: DPATLYAVVENVPPLRWKEFVRRLGLSDHEIDRLELQNGRCLREAQYSMLATWRRRTPRREATLELLGRVLRDMDLLGCLEDIEEALCGPAALPPAPSLLR
notes: Yeast two-hybrid fusion; also called p55-R; p55 TNF-R DD
B2: human p55 TNF-R DD (residues 326-426) point mutant L351N, Gal4 hybrid construct (receptor, not shown: large carriers)
chain: B1 chain with L26N
notes: Legend prints 'L35IN'; also called p55-R L35IN; p55 TNF-R (L351N)
B3: death domain (DD) of human TRADD, residues 195-312, Gal4 hybrid construct (other, not shown: large carriers)
chain: PPPPAQTFLFQGQPVVNRPLSLKDQQTFARSVGLKWRKVGRSLQRGCRALRDPALDSLAYEYEREGLYEQAFQLLRRFVQAEGRRATLQRLVEALEENELTSLAEDLLGLTDPNGGLA
notes: Yeast two-hybrid fusion; also called TRADD DD
B4: DD of the rat low-affinity NGF receptor (receptor, UniProt P07174 340-425, looked up)
chain: LPLTKREEVEKLLNGDTWRHLAGELGYQPEHIDSFTHEACPVRALLASWGAQDSATLDALLAALRRIQRADIVESLCSESTATSPV
notes: domain: DD; Control in the two-hybrid specificity test; construct not described; also called rat NGF-R DD
B5: death domain (DD) of human MORT-1, residues 92-208, Gal4 hybrid construct (other, not shown: large carriers)
chain: PGEEDLCAAFNVICDNVGKDWRRLARQLKVSDTKIDSIEDRYPRNLTERVRESLRIWKNTEKENATVAHLVGALRSCQMNLVADLVQEVQQARDLQNRSGAMSPMSWNSDASTSEAS
notes: Yeast two-hybrid fusion; also called MORT-1 DD; HF1

Positions count from the first letter of the chain named. Numbers in names are those of the source.

The target in data set [1] is B3. The data set is described as follows: yeast two-hybrid (summing up of Example 2). The source says: (§1) Two-Hybrid β-Galactosidase Expression Tests. cDNA inserts were cloned by PCR, either from the full-length cDNAs cloned previously in our laboratory, or from purchased cDNA libraries. Residue numbering in the proteins encoded by the cDNA inserts are as in the Swiss-Prot Data Bank. Point mutants were produced by oligonucleotide-directed mutagenesis (Kunkel, 1994). β-galactosidase expression in yeasts (SFY526 reporter strain (Bartel et al, 1993)) transformed with these cDNAs in the pGBT-9 and pGAD-GH vectors (DNA binding domain (DBD) and activation domain (AD) constructs, respectively) was assessed by a filter assay (Boldin et al, 1995). When expressed in the pGAD-GH vector, RIP and its DD had some cytotoxic effect on the yeasts, manifested in a low yield of yeast colonies.
(§2) The interactions of the DDs of human p55 TNF-R, FAS-R, TRADD, MORT-1 and RIP were evaluated first by a yeast two-hybrid test. The cDNAs encoding these domains were expressed as fusion proteins with the Gal4 DNA binding and activation domains (DBD and AD constructs) in the yeast SFY526 reporter strain, and the binding of these fusion proteins to each other was assessed by determining β-galactosidase expression by the yeasts. The results of these tests are summarized in FIG. 1 and illustrated diagrammatically in FIG. 3.

Another data set concerns the target T1, SNF 1 (UniProt P06782 1-633, limits assumed).
T1 sequence (looked up): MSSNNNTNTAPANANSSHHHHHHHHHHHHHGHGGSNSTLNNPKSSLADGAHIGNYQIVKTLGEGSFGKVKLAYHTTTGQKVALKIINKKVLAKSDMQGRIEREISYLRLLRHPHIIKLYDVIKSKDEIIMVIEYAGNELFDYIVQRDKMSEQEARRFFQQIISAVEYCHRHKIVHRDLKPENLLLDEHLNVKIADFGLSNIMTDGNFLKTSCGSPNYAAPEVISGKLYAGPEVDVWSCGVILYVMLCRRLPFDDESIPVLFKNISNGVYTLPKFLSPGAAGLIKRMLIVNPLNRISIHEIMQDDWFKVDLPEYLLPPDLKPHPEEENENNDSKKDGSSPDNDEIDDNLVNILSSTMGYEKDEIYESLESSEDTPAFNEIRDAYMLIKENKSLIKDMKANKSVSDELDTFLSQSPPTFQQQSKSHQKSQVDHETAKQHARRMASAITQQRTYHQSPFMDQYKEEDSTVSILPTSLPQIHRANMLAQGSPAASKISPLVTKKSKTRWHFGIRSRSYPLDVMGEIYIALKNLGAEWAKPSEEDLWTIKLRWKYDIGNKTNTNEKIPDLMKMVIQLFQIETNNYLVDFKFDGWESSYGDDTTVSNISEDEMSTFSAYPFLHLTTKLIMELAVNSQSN
As to the kind of experiment: yeast two-hybrid specificity test (not shown).

The target of data set [2] is T2, intracellular domain of the human p75 TNF receptor (human, UniProt P20333 288-461, limits assumed).
T2 construct: domain: intracellular domain; Irrelevant control in the two-hybrid specificity test; construct not described; also called p75 IC
T2 sequence (looked up): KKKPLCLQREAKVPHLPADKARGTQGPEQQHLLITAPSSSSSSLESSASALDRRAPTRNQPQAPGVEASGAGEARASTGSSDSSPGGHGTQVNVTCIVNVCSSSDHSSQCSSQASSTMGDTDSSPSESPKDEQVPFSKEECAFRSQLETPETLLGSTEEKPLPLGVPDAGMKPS
The data set is described as follows: yeast two-hybrid specificity test (not shown).

The target in data set [3] is B5. The data set is described as follows: yeast two-hybrid, beta-galactosidase filter assay, SFY526.
Text: as §1, §2

In data set [4] the target is B5. As to the kind of experiment: yeast two-hybrid, beta-galactosidase filter assay.
Text: (§3) FIG. 2 depicts interactions of the ‘death domains’ of the P55-R, Fas/APOI, MORT-1, TRADD and. RIP in a yeast two-hybrid test, and the effect of lbr^cg-like mutations in these proteins on their interactions. Assessment of the interaction of Gal4 hybrid constructs encompassing the following human proteins, truncated upstream to their DD motifs: p55-R (residues 326-426), FAS-R (residues 210-319), MORT-1 (residues 92-208), TRADD (residues 195-312) and RIP (residues 261-372), as well as of the following points mutants of these proteins: p55-R L35IN, FAS-R V238N, MORT-1 V121N, and RIP F308N, whose mutation sites within the DDs correspond to that found in the FAS-R of the lpr^cg mice. Each cDNA insert was introduced both into the Gal4 DNA binding domain (DBD) and the Gal4 activation domain (AD) constructs (pGBT9 abd pGAD-GH), and the binding of the inserts in both constructs to all other inserts within transfected SFY526 yeasts was assessed by a β-galactosidase expression filter assay. The results are presented in terms of the time required for development of strong color. ND—not done.
as §1

For data set [5], the target named is B3. As to the kind of experiment: yeast two-hybrid, beta-galactosidase filter assay.
Text: as §3, §1

Data set [6] concerns the molecule itself. The data set is described as follows: yeast two-hybrid, beta-galactosidase filter assay.
Text: as §3, §1

Data set [7] deals with the molecule itself. As to the kind of experiment: yeast two-hybrid, beta-galactosidase filter assay, SFY526.
Text: as §1, §2

Data set [8] deals with B1. The data set is described as follows: yeast two-hybrid specificity test (not shown).
The target in data set [9] is B5. As to the kind of experiment: yeast two-hybrid specificity test (not shown).
The target of data set [10] is B3. As to the kind of experiment: yeast two-hybrid specificity test (not shown).
Data set [11] addresses B3. The data set is described as follows: yeast two-hybrid, beta-galactosidase filter assay, SFY526.
Text: as §1, §2

Data set [12] deals with the molecule itself. The data set is described as follows: yeast two-hybrid, self-association, beta-galactosidase filter assay, SFY526.
Text: as §1, §2

With B1, the binding result in data set [1] is on record as “binds”; with SNF 1 it was “no binding”; in data set [2] it was “no binding”; in [3], “no binding”.

In the case of B2, the binding result in data set [4], in data set [5] and in data set [6] was “no binding” in each case.

B3: the binding result with SNF 1 is recorded as “no binding”; in data set [2] it was “no binding”; in [7], “binds”.

For the molecule B4, the binding result in [8], in data set [9] and in [10] was “no binding” in each case.

Take B5: the binding result with SNF 1 is “no binding”; in data set [2] it was “no binding”; in data set [11], “binds”; in data set [12], “no binding”.
